Experimental data from article PMC2141715.

Biological target: calreticulin (canine pancreas microsomes) (dog (endogenous in canine pancreas microsomes)) (UniProt P28490)
Experiment: co-IP

Substance: HA glycosylation mutant Δ483 (natural protein)
- reduction in binding against wild-type HA: 40%
